The source of these data is IntAct's records for PubMed 21245319.

The chains are these.
B1: Histone-lysine N-methyltransferase SETD7 (Homo sapiens), Q8WTS6 (parent)
chain: MDSDDEMVEEAVEGHLDDDGLPHGFCTVTYSSTDRFEGNFVHGEKNGRGKFFFFDGSTLEGYYVDDALQGQGVYTYEDGGVLQGTYVDGELNGPAQEYDTDGRLIFKGQYKDNIRHGVCWIYYPDGGSLVGEVNEDGEMTGEKIAYVYPDERTALYGKFIDGEMIEGKLATLMSTEEGRPHFELMPGNSVYHFDKSTSSCISTNALLPDPYESERVYVAESLISSAGEGLFSKVAVGPNTVMSFYNGVRITHQEVDSRDWALNGNTLSLDEETVIDVPEPYNHVSKYCASLGHKANHSFTPNCIYDMFVHPRFGPIKCIRTLRAVEADEELTVAYGYDHSPPGKSGPEAPEWYQVELKAFQATQQK

The variants in the assay derive from B1. The settings on record: with sir1_human SIRT1, Q96EB6.
sir1_human SIRT1, Q96EB6, sequence (Q96EB6 whole entry): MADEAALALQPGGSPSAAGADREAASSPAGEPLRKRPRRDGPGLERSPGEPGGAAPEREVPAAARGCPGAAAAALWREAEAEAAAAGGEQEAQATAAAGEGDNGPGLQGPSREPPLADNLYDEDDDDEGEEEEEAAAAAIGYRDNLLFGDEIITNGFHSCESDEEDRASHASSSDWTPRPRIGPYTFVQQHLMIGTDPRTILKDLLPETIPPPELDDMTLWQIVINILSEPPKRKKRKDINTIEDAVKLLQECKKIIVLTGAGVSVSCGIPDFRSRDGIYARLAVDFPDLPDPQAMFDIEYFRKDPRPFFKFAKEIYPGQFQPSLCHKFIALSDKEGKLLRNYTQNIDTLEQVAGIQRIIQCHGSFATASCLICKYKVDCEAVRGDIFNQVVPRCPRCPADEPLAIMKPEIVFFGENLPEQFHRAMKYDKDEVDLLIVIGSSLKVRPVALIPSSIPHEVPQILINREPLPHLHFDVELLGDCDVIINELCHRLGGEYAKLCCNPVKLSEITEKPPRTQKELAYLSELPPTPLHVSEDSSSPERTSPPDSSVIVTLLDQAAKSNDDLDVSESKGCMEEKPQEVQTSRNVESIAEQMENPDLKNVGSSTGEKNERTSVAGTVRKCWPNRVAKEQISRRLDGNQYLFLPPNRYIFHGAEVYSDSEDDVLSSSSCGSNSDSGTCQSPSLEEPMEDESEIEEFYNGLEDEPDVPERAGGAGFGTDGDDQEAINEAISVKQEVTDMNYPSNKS
With MDSDDEMVEEAVEGHLDDDGLPHGFCTVTYSSTDRFEGNFVHGEKNGRGKFFFFDGSTLEGYYVDDALQGQGVYTYEDGGVLQGTYVDGELNGPAQEYDTDGRLIFKGQYKDNIRHGVCWIYYPDGGSLVGEVNEDGEMTGEKIAYVYPDERTALYGKFIDGEMIEGKLATLMSTEEGRPHFELMPGNSVYHFDKSTSSCISTNALLPDPYESERVYVAESLISSAGEGLFSKVAVGPNTVMSFYNGVRITHQEVDSRDWALNGNTLSLDEETVIDVPEPYNHVSKYCASLGHKANASFTPNCIYDMFVHPRFGPIKCIRTLRAVEADEELTVAYGYDHSPPGKSGPEAPEWYQVELKAFQATQQK [H297A], the “effect of a mutation on the interaction” value is “decreasing interaction strength”.
